Columns and labels:
[1] = biological target: KLB (β-klotho) on KLB only expressing cells (UniProt Q86Z14); assay: cell-based or functional assay
[2] = biological target: KLB/FGFR4 on KLB/FGFR4 expressing cells (UniProt Q86Z14); assay: cell-based or functional assay
Chain of KLB/FGFR4 on KLB/FGFR4 expressing cells (Q86Z14 whole entry, chain 1 of 2): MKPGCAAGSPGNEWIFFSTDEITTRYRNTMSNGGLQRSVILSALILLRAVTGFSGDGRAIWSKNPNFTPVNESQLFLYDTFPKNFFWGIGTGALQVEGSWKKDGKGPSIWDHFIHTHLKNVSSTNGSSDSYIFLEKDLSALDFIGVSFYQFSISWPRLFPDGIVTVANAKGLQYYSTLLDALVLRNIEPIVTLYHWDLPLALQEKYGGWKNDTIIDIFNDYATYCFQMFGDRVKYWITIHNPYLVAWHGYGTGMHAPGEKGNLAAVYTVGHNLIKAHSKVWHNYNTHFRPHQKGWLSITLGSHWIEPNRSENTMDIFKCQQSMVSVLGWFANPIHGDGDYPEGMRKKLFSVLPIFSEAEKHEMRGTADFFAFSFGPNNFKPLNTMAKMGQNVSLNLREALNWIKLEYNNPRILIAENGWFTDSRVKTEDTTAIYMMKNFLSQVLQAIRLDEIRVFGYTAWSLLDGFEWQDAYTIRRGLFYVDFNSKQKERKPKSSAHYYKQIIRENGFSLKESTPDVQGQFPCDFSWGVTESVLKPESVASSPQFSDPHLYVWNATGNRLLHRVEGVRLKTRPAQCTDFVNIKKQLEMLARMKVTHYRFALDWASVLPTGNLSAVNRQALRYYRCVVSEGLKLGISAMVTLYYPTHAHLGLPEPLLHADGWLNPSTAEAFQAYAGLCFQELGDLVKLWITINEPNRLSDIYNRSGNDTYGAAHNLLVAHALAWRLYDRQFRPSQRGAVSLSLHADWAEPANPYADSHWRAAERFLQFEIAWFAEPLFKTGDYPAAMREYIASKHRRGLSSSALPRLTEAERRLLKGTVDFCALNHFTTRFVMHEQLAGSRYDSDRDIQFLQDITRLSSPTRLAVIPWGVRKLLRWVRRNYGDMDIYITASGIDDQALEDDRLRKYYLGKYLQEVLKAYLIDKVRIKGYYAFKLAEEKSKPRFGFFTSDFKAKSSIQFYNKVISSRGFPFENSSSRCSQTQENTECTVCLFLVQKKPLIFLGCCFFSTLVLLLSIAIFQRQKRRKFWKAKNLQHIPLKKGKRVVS
Chain of KLB/FGFR4 on KLB/FGFR4 expressing cells (P22455 22-802 limits assumed, chain 2 of 2, further chain): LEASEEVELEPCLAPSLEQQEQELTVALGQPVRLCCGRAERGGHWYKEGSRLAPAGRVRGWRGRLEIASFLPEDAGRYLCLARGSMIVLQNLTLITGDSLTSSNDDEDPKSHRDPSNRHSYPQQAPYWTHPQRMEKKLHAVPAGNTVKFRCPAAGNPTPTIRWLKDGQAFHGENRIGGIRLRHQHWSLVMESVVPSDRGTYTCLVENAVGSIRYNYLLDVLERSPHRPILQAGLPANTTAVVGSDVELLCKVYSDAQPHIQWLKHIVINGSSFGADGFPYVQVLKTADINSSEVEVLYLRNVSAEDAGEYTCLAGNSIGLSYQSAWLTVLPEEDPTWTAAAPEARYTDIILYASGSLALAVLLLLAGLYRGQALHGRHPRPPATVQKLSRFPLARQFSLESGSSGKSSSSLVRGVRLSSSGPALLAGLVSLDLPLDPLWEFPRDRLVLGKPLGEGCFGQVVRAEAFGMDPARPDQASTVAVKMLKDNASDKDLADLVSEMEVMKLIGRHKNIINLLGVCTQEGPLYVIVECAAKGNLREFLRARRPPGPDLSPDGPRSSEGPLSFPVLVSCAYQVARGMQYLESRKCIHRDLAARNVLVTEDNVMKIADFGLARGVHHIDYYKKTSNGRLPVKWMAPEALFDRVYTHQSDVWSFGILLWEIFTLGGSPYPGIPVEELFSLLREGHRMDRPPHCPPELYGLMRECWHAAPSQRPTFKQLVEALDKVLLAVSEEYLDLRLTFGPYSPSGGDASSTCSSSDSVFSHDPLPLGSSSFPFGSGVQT

Chain of KLB (β-klotho) on KLB only expressing cells (Q86Z14 whole entry): as the sequence (Q86Z14 whole entry, chain 1 of 2) above

| pERK functional assay, fold increase of pERK at 3000 nM [1] [fold] | pERK functional assay, fold increase in pERK at 3000 nM [2] [fold] | Substance |
| --- | --- | --- |
| 2 | < 2 | FGF-21 (native / wild type human Fibroblast Growth Factor-21) (from UniProt Q9NSA1 29-209) (ligand) |
| 2 | – | FGF-19 (from UniProt O95750 25-216) (ligand) |
| – | < 2 | Mutant FGF21-GalNAc-SA-PEG-20 kDa (BIO89-100) (from UniProt Q9NSA1 29-209) (ligand) |

Reference: US20260201005A1
